Measured values from the nanobody polyreactivity screen of Harvey et al. (2022).

Assay: yeast display, Sf9 membrane polyspecificity reagent, FACS + sequencing; frameworks hold sequencing errors
In short: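 Galactose-induced (36–48 hours) yeast carrying a synthetic nanobody display library were exposed to 10% biotinylated, detergent-solubilized Sf9 membrane reagent at 4 °C for 1 hour. FACS followed streptavidin microbead enrichment, using low and high (top ~1%) gates for expression (anti-HA) and reagent binding (streptavidin). Colony PCR, MiSeq 2 × 250 sequencing and CDR-length filtering followed. Labels for polyreactivity reflect the gate of origin.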

Sequence: QVQLVESGGGIVQAGGSLRLSCAASGRTFNHYAMGWYRQAPGKERELVAAITNGGNTYYADSVKGRFTISRDNAKNTVYLQMNSLKPEDTAVYYCAKLYTDAIVWSAYDYWGQGTQVTVSS
- polyreactivity (PSR sort gate): low polyreactivity

Sequence: QVQLVESGGGLVQAGGSLRLSCAASGSTFLKYAMGWYRQAPGKERELVAAISRSGTSTYYADSVKGRFTISRDNAKNTVYLQMNSLKPEDTAVYYCAARWIRSNTQYDYWGQGTQVTVSS
- polyreactivity (PSR sort gate): high polyreactivity

Sequence: QVQLVESGGGLFQAGGRLRLSCAPSGFNFGGYVMGWYRQAPGKDRELVAAISSSGGITHYADSVKGRFTISRDNANNTVYLQMNSLKPEDTEVYYCNALYRKRYYWGQGTQVTVSS
- polyreactivity (PSR sort gate): high polyreactivity

Sequence: QVQLVESGGGLVQAGGSLRLSCAASGRTFNPYVMGWYRQAPGKERELVARIRGSGTSTYYADSVKGRFTISRDNAKNTVYLHMNSLKPEDTAVYYCAAAQSKYSFYWGDYYYWGQGTQVTVSS
- polyreactivity (PSR sort gate): high polyreactivity

Sequence: QVQLVESGGGLVQAGRSLRLSCAASGSTIVGYAIGWYRQAPGKDRELVAAISGSGTSTYYADSVKGRFTISRDNAKNTVYLHMISMKPEHTAVYYCIADPIFVYSSYNFWGQGTQVTVSS
- polyreactivity (PSR sort gate): low polyreactivity

Sequence: HVQLVESGGGLVQAGGSLRLSCAASGSISHLYTMRWYRQAPGKERELVAAIRYSGGRTDYADSVKGRFTISRDNAKNTVYLQMNSLKPEDTAVYYCAATQLRRWYYHYGLDYWGQGTQVTVSS
- polyreactivity (PSR sort gate): high polyreactivity

Sequence: QVQLVESGGGLVQAGGSLRLSCAASGSTFTPYVMGWYRQAPGKERELVAAIRRRGGSTYYADSVKGRFTISRDNAKNSVYLQMNSLKPEDTAVYYCATDWSWLSLKFDYWGQGTQVTVSS
- polyreactivity (PSR sort gate): high polyreactivity

Sequence: QVQLVESGGGLVQAGGSLRLSCAASGRTLYYYTMGWYRQAPGKERELVAAIRWSTGSTYYADSVKGRFTISRDNAKNTVYLQMNSLKPEDTAVYYCNAVVARLIFWQFDYWGQGTQVTVSS
- polyreactivity (PSR sort gate): high polyreactivity

Sequence: QVQLVESGGGLVQAGGSLRLSCAASGIIFPYYTMGWYRQAPGKERELVARITNGGRTYYADSVKGRFTISRDNAKNTVYLQMISLKPEDTAVYYCNAGRYYIGGYWGQGTQVTVSS
- polyreactivity (PSR sort gate): high polyreactivity

Sequence: QVQLVESGGGLVQAGGSLRLSCAASGSIFDFYDMGWYRPAPGKERELVAAISSGGGSTYYADSVKGRFTISRDNAKNTVYLQMNSLKPEDTAVYYCAADLKGNYYLGIARYVLYYWGQGTQVTVSS
- polyreactivity (PSR sort gate): low polyreactivity

Sequence: QVHLVESGGGLVQAGGSLRLSCSASGSTFYRYAMGWYRQAPGKERELVAAINTGGSTNYADSVKGRFTISRDNAKNTVYLQMNSLKPEDTAVYYCAARFQYYRKYDYWGQGTQVTVSS
- polyreactivity (PSR sort gate): low polyreactivity

Sequence: QVQLVESGGGLVQAGGSLRLTCAASGTFFMGWYRQAPGKERELVAGISISDGSTYYADSVKGRFTISRDNAKNTVYLQMNSLKPEDTAVYYCAADSHYLYDYWGQGTQVTVSS
- polyreactivity (PSR sort gate): low polyreactivity

Sequence: QVQLVESGGGLVQAGGSLRLSSAASGSIIKYYAMGWYRQAPGKERELVAAINKSGGTTYYADSVKGRFTISRDNAQNPVYLQMNSLKPEDTAVYYCATDNTVVYQPGNMDFWGQGTQVTVSS
- polyreactivity (PSR sort gate): low polyreactivity

Sequence: QVQLVESWGGLVQAGRSLRLSCAASGRTFYNYAMGWYRQAPGKERELVAAITRGGSTYYADSVKGRFTISRDNAKNTVYLHMNSLKPEDTAVYFCNAKYIKGRDWGQGTQVTVSS
- polyreactivity (PSR sort gate): high polyreactivity

Sequence: QVQLVESGGGLVQAGGSLRLSCAASGFISTPYAMGWYRQAPGKERELVAAIDISGGRTYYADSVKGRFTISRDNAKNTVYLQMNSLKPEDTAVYYCAAQLVSSYYAWYRTYYYWGQGTQVTVSS
- polyreactivity (PSR sort gate): high polyreactivity

Sequence: QVQLVESGGGLVQAGGSLRLSCAASGFTFPRNAMGCYRQAPGKERELVAGISKSGGSTYYADSVKGRFTISRDNAKNTVYLQMNSLKPEDTAVYYCAKAVNSPRKYQLGNGYWGQGTQVTVSS
- polyreactivity (PSR sort gate): high polyreactivity

Sequence: QVQLVESGGGLVQAGGSLRLSCAASGRTFYINAMGWYRPEPGKERELVAAISSSGGITYYADSVKGRFTISRDNAKNTVNLQMIRLKPEDTAVYYCNAPNDYSWHYDYWGQGTQVTVSS
- polyreactivity (PSR sort gate): low polyreactivity

Sequence: QVQLVESGGGLVQAGGSLRLSCAASGRIFAVNAMGWYRQAHGKERELVASISRRGGTTNYADSVKGRFTISRDNAKNTVYLKMNSLIPEDTAVYYCATRGSAWGRSYNYWGQGTQVTLSS
- polyreactivity (PSR sort gate): high polyreactivity

Sequence: QVQLVESGGGLVQAGGSLRLSCAASGRIFVYNAMGWYRQAPGQERELVAAISRGGSTNYADSVKGRFTISRDNAKNTVYLQMNSLKPEDTAVYYCAADIYQYGYDYWGQGTQVTVSS
- polyreactivity (PSR sort gate): low polyreactivity

Sequence: QVQLVESGGGLVQAGGSLRLSCAASGNIIWGNAMGWYRQAPGKERELVAAISRRSGSTYYADSVKGRFTISRDNAKNTVYLQMNSLKPEDTAVYYCNTAGRVGTYDYWGQGTQVTVSS
- polyreactivity (PSR sort gate): high polyreactivity

Sequence: QVQLVESGGGLVQAGGSLRLSCAASGSIFWQNTMGWYRQAPGKERELVATISSGDSTYYADSVKGRFTISRDNAKNTVYLQMNSLKPEDTAVYYCNTTEHKYVSSFEYGYWGQGTQVTVSS
- polyreactivity (PSR sort gate): low polyreactivity

Sequence: QVQLVESGVGIVQAGRSHRVSCAASGSTYNPYAMGWYRQAPGKESELVARIRGSGGSTYYADSVKVRFTISRDNAKNPVFLHMNSQKPEDTAVYYCATDDYYLSRYRLVGYYSWGQGTQVTVSS
- polyreactivity (PSR sort gate): high polyreactivity

Sequence: QVQLVESGGGLVQAGGSLRLSCAASGITFKWNDMGWYRQAPGKEREFVAAITGSTGSTFYADSVKGRFTISRDNAKNTVYLQMISLKPEDTAVYYCAAGPWFYYWGQGTQVTVSS
- polyreactivity (PSR sort gate): low polyreactivity

Sequence: QVQLVESGGGLVQAGGSLRLSCAASGSTFKSYVMGWYRAAPGKERELVAAISTGDSTYYADSVKGRFTISRDNAKNTVYLQMNSLKPEDTAVYYCAADPGYTVEPWEDDYWGQGTQVTVSS
- polyreactivity (PSR sort gate): low polyreactivity

Sequence: QVQLVESGAGLVQAGGSLRLSCAASGSIFKYNTMGWYRQAPGKERELVATISGGGRTYYADSVKGRFTISRDNAKNTVYLQMNSLKPEDTAVYYCAARKRGTFTYDYWGQGTQVTVSS
- polyreactivity (PSR sort gate): high polyreactivity

Sequence: QVQLVESGGGLVQAGGSLRLICAASGSIFSKYVMGWYREAPGKERDLVAAISWSGTRTYYADSVKGRFTISRDNAKNTVILQMNSMKAEDTAVYYCAARRLYAGHQYDYWGQGTIVTVSS
- polyreactivity (PSR sort gate): high polyreactivity

Sequence: QVQLVESGGGLVQAGGSLRLSCAASGSIFESNGMGWYRPAPGKERELVASISNGDITYYADSVKGRFTISRDNAKNTVYLQMISVKPEYTAVYYCAATLYRNYVIFRYDYWGQGTQLTVSS
- polyreactivity (PSR sort gate): low polyreactivity

Sequence: QVQLVESGGGLVQAGGSLRLSCAASGIIFAYNAMGWYRQAPGKERELVATITDSGGSTSYADSVKGRFTISRDNAKNTVYLQMNSLKPEDTAVYYCAVLPVYWYWRNYVYLSGYDYWGQVTQVTVSS
- polyreactivity (PSR sort gate): low polyreactivity

Sequence: QDQLVESVGGLVQAGGSLRLSCAASVRIFYWNAIGWYRQATGKESELVATITRGDRTYYADSVKGRFTISRDNAKNTVYLQMNSLKPEDTAVYYCARSSNPYFYGMYYWGQGTQVTVSS
- polyreactivity (PSR sort gate): high polyreactivity

Sequence: QVQLVESGGGLVQAGGILRLSCAASGLTFYYYSMGWYRQAPGKERELVAAINSSGGITFYADSVKGRFTISRDNAKNTVYLQMNSLKPEDTAVYYCAAGGRSKRYGYWGQGTQVTVSS
- polyreactivity (PSR sort gate): low polyreactivity

Sequence: QVQLVESGGGLVQAGGSLRLSCADSGFTFVAYAMGWYRQAPGKERELVAVISRGGSTYYADSVKGRFTISRDNAKNTVYLQMNSLKPEDTAVYYCAATYIHSYGKFYYWGQGTQLTVSS
- polyreactivity (PSR sort gate): low polyreactivity

Sequence: QVELVESGGGLVQAGGSLRLRCAASGLTFYYYPMGWYRQAPGKERELFAAIASVGSTYYADSVKGRFTISRDNATNTVYLQMNSLKPDDTAVYYCAAKSFWWHEDYWGQGTQVTVSS
- polyreactivity (PSR sort gate): low polyreactivity

Sequence: QVLQQESCGLVQAGCSLRMSCAASGSISTALSMGWYRQAPGKERELVATISDGASTNYADSVKGRFTISRVNAKNTVYLQMNSLKPEDTAVYYFARYYFGNFGWGQGTQVTVSS
- polyreactivity (PSR sort gate): high polyreactivity

Sequence: QVHLVESGGGLVQAGGSLRLSCAASGITFYRYAMGWYRQAPWKERELVAAITVGGRTYYADSVKGRFTISRDNAKNNVYLQMNSLKPEDTAVYYCNVRTLHSVRGYYYWGQGTQVTVSS
- polyreactivity (PSR sort gate): high polyreactivity

Sequence: QVQLVESGGGLVQAGGSLRLSCAASGIIFYGYAMGWYRQAPGKERELVAAISRSGGSTYYADSVKGRFTISRDNAKNTVYLQMNSLKPEDTAVYYCAASGVTYDYWGQGTQVTVSS
- polyreactivity (PSR sort gate): high polyreactivity

Sequence: QVQLVESGGGLVQAGGSLRLSCAASGRTLYGYAMGWYRQAPGKERELVAAISESDGSTYADSVKGRFTISRDNAKNTVYLQMNSLKPEDTAVYYCAADYYWYALQDGYYTYGYTYDYWGQGSQVTVSS
- polyreactivity (PSR sort gate): low polyreactivity

Sequence: QVQLVESGGGLVQAGGSLRLSCAASGITFKPYGMGWSRQAPGKERELVADITSGGITYYADSVKGRFTISRDNAKNTVYLQMNSLKPEDTAVYYCAAPYQQHVYHHYWGQGTQVTVSS
- polyreactivity (PSR sort gate): low polyreactivity

Sequence: QVQLVESGGGLVQAGGSLRLSCAASGFTFYIYAMGWSRQAPGKERELVAAISSSGGSTYYADSVKGRFTISRDNAKNTVYLQMNSLNPEDTAVYYWNVVRYPVYRTRYYYWGQGTQVTVSS
- polyreactivity (PSR sort gate): high polyreactivity

Sequence: QVQIVESGGGLVQAGGSLRLSCAASGSILIPYAMGWYRQAPGKERELVAAISRTTRTYYADSVKGRFTISRDNAKNTVYLQMNCLKPEDTAVYYCAADRVYPYFRYGFWGQGTKVTVSS
- polyreactivity (PSR sort gate): high polyreactivity

Sequence: QVQLQESGGGLVQAGGSLRLSCAASGTISQEDWMGWYRQAPGKEREFVAAIGLGSNTNYADSLKGRFTISRDNAKKTVYLQMNSLKPEDTAVYYCAVSVWQYSDHVYRGQGTQVTVSS
- polyreactivity (PSR sort gate): low polyreactivity

Sequence: QVQHVETGRDLVQAGGSLRLSCAAAGLIFVSYAMGGYRQAPGKERELVASITDSDSSTYYADSVKGRFTISRDNAKNTVYLQMNSLKPEDTAVYYCATGGRTEIWYPTLDYWGQGTQVTVSS
- polyreactivity (PSR sort gate): low polyreactivity

Sequence: QVQLVESGGGLVQAGGSLRLSCAASGLTFDYYAMGWYRQAPGKERELVAAISIGGSTNYADSVKGRFTISRDNAKNTVYLQMNSLKPEDTAVYYCNAEFAPWGSAYGHDQYDYWGQGTQVTVSS
- polyreactivity (PSR sort gate): low polyreactivity

Sequence: QVQLVESGGGLVQAGGSLRLICAASGFTFRRYAMGWYRQAPGKEREFVAVITWSGTRTYYADSVKGRFTISRDNAKNTVYLQMNSLKPEDTAVYYCAAYITDVAGRAYDYWGQGTQVTVSS
- polyreactivity (PSR sort gate): high polyreactivity
